# According to the DeepSol protein solubility set:
# Assay: soluble on expression in E. coli; label from the status in PepcDB or PDB records
row,Sequence,soluble on expression in E. coli
1,MPRSTWFKALLLLVALWAPLSQAETGWQPIQETIRKSDKDNRQYQAIRLDNGMVVLLVSDPQAVKSLSALVVPVGSLEDPEAYQGLAHYLEHMSLMGSKKYPQADSLAEYLKMHGGSHNASTAPYRTAFYLEVENDALPGAVDRLADAIAEPLLDKKYAERERNAVNAELTMARTRDGMRMAQVSAETINPAHPGSKFSGGNLETLSDKPGNPVQQALKDFHEKYYSANLMKAVIYSNKPLPELAKMAADTFGRVPNKESKKPEITVPVVTDAQKGIIIHYVPALPRKVLRVEFRIDNNSAKFRSKTDELITYLIGNRSPGTLSDWLQKQGLVEGISANSDPIVNGNSGVLAISASLTDKGLANRDQVVAAIFSYLNLLREKGIDKQYFDELANVLDIDFRYPSITRDMDYVEWLADTMIRVPVEHTLDAVNIADRYDAKAVKERLAMMTPQNARIWYISPKEPHNKTAYFVDAPYQVDKISAQTFADWQKKAADIALSLPELNPYIPDDFSLIKSEKKYDHPELIVDESNLRVVYAPSRYFASEPKADVSLILRNPKAMDSARNQVMFALNDYLAGLALDQLSNQASVGGISFSTNANNGLMVNANGYTQRLPQLFQALLEGYFSYTATEDQLEQAKSWYNQMMDSAEKGKAFEQAIMPAQMLSQVPYFSRDERRKILPSITLKEVLAYRDALKSGARPEFMVIGNMTEAQATTLARDVQKQLGADGSEWCRNKDVVVDKKQSVIFEKAGNSTDSALAAVFVPTGYDEYTSSAYSSLLGQIVQPWFYNQLRTEEQLGYAVFAFPMSVGRQWGMGFLLQSNDKQPSFLWERYKAFFPTAEAKLRAMKPDEFAQIQQAVITQMLQAPQTLGEEASKLSKDFDRGNMRFDSRDKIVAQIKLLTPQKLADFFHQAVVEPQGMAILSQISGSQNGKAEYVHPEGWKVWENVSALQQTMPLMSEKNE,soluble
2,MGSDKIHHHHHHMTENKLIIGTAPDSWGVWFADDPKQTPWERFLDEVAESGYKWIELGPYGYLPNNPARLAEELKQRDLKVTAGTVFTAFHRGLDEWETAWEPARKVAELTAAMGGEHIVVIPAMWRDDVTGEAVESGQLTEKAWSDLFAGHNRLGKTLLEDFGLKQQFHSHADSHVGAQEDIESLLAATDSKYLNLCLDTGHAEYCGASSLELIKNYPDRIGYLHLKQINPDILKKVNEENMTWAAANLAGVMTEPPNGLPDLRAVIEAVEALNRPIFGIVEQDMYPVAFDVPMPIAKRTRNYLLSCGSRTAVN,not soluble
3,MSLKRNNVNVVNRTKNSNPEFRIPLHYKHKIPFVLSDAIERNHDQDLTAEVHFYLALPPERCRRIYKSRRKALNAMLRAILYHVNVISKQVPISATMLTEYCGLTTISAAGNKSVTRGTRTLAMLRDLGFITYRQCWDRVSRRYFPSAIAVTERLIDLVGICPERWRTELNNKLANYNHKIFKKEGITLNEYDYARNLREDQLKRSYMYHSNRKEIKKKKKEATRLEKLVKIKGENELRHLISRQVSEEFLKGFIPGAQLKDLKKIVDKRINTLKKIAKSLHEGHHHHHH,not soluble
4,MVRPYGIKVNKRKEREERYDKEEDEVEEQPKFEQKQKARESSKKAKKESTSRAEEDNDEEEVTVEATAAAEDIVGGIPIVLNAPNKEKSGIVFVLEKASLEVAKVGKTYQLLNSDDHANFLKKNNRNPADYRPDITHQALLMILDSPVNKAGRLKAVYVRTEKGVLFEVKPHVRIPRTFKRFAGIMLQLLQKLSITAVNSREKLLRCVKNPIEEHHLPVNSHRIGFSHSSEKLVNMQKHLATVCDDDRDTVFVVGAMAHGKIDCNYIDEFVSVSEYPLSAAYCISRICEALATNWNII,soluble
5,MAKVIFDENRCKGCKLCTTVCPKKIVVMNEDKLNQKGFHPAGVVDMDKCIGCAFCATICPDCVIEVYK,not soluble
6,MRKQFLIAHRGYSTIAPENTHLAFAAAQLFGFDGLWMEVQLTKDKQIVVTNLDNYKVGNKTHKLSDINLVNLKKINLAKQFKVNVQEQTILTLKEVLMEFLTPFRFLLLFIKGEEEQQNQVLVEQLAQLLEGFELAKEKLILLSSHFSTIKYLNEKLKSFKTSFVFNSKKQLVHLTKDEITQNCRFLAPNDSFYHKNCAELQSYGLPIILWVIKGLLRYQFYENDRFVKFQIAAQLY,soluble
7,SATLLHDAVMNPAEVVKQRLQMYNSQHQSAFSCIRTVWRTEGLGAFYRSYTTQLTMNIPFQSIHFITYEFLQEQVNPRRDYNPQSHIISGGLAGALAAAATTPLDVCKTLLNTQENMALSLANVSGRLSGMANAFRTVYQLNGLAGYFKGIQARVIYQMPSTAISWSVYEFFKYILTKRQLENRTLY,soluble
8,MGGLLFSSLQHCQQGFVISNELRQQQSELTSTWDLMLQTRINLSRSAARMMMDASNQQSSAKTDLLQNAKTTLAQAAAHYANFKNMTPLPAMAEASANVDEKYQRYQAALAELIQFLDNGNMDAYFAQPTQGMQNALGEALGNYARVSENLYRQTFDQSAHDYR,soluble
9,MTTDERKLFNHLKSPHLKYWVPFIWFGNLATKARNEGRIRDSVDLQSLMTEMNRYRSWCSLLFGYDWVGIPLVYTQVAEQLINPFGEDDDDFETNWCIDRNLQVSLLAVDEMHMSLPKMKKDIYWDDSAARPPYTLAAADYCIPSFLGSTVQMGLSGSDFPDEEWLWDYEKHGHRHSMIRRVKRFLSAHEHPSSPRRRSYRRQTSDSSMFLPRDDLSPARDLLDVPSRNPPRASPTWKKSCFPEGSPTLHFSMGELSTIRETSQTSTL,soluble
10,AEAQNDPLLPGYSFNAHLVAGLTPIEANGYLDFFIDRPLGMKGYILNLTIRGQGVVKNQGREFVCRPGDILLFPPGEIHHYGRHPEAREWYHQWVYFRPRAYWHEWLNWPSIFANTGFFRPDEAHQPHFSDLFGQIINAGQGEGRYSELLAINLLEQLLLRRMEAINESLHPPMDNR,soluble
11,MSLSNALVNPREAPAHGRFVPAPILAHRNCTQGALNMLEAKLKPHREYLLAQSAGQKLFLTLTVKPTAEARQARPDLSVVFVVDTSGSMREVVTEPTERTGRTTQVDGQVYEVVKGGKNKMQLMIEALRGIVTSTLIRPGDRLALVKFDDTAEVLVPFITASNQAQLAAAVDKLDWYSGGTHMGAGMRAGAGLLTGERGSRRMVLISDGQTFDAPLVEDQIGALAGLQVPVTVVAVGDEVNADLLTAIADRTQGQPLDIVPDTQNPQPPAIRASELPAALLGDLQKAAAEVVTGVALSVRTVKDVVLERVTRVQPTQTEVALRADGPLPLGNVDAGSGATFVLEFTLPARPATKMRLAQLGLTYEVPGANYRGEIPPLDVVVEFTGEEALAARIDPEVMGWVQQRNIEGLVAQATREANQNPEQAAKTLEQARAMTQRLGNGAMTQALDRAIGELGSSKTISLGTAKTLKIGAKTQTLSSDAALPSDEDIRRMTGEGGSHHHHHH,soluble
12,GSEVYKKAPPYPEQVVSASGKVLMTKDDILAGQSAWQTTGGMEVGSILGHGAYQAPDWTADWLHRELVAWLDLTAQQTYGKKFDEVSPEEQAVLKTRLADEYRNQSRVKEDGSVVISDTRVKAIESILPYYHGVYSDDPKFQTTREHFAMKNNTLPSQEAREKLFNFFFWTSWSASTNRPDENFTYTNNWPHEPLINNVPTTEN,not soluble
13,MAYFMTDVTKENRQDECRFSPNKEATEEDLLRIGVECTKVNFDDEHVQEDLDRLIKKYDMNFHDEVHICRATMPNFDEKLDIFFEEHLHDDAELRVIKHGVGFFDVRTKDEAWIRIPVRRGDFVFLPAGIYHRFTTDPSEDVVALRLFRNNPKWTAFNRKADGDEQRVRQQYLNDISA,soluble
14,MSLYVVISPTGRTDGNIPARGYAGPSGRLDVIARAYNAILEPNATLAALLMGGPLPPRLLIAPLSCKDIVRSERSFMIEASRALRGRRSCFTVNDEGVEALASLLRRFKPRILLAEKGGDISSHWGEMCSSSPTFIAGSHLDPPHGLIKHLERSLGGFLRVSVGPLSLHTDHVFLLVSALRLPMHATSIEHH,not soluble
15,MDWFSWLSRTNLEASLIYEYGLSFSNNELEYEDIAYFNHEFLQSMGISIAKHRLEILKLARRDRKPSPLTARSIFRVLIAIKKTGKCFSEHVRAWIRREESSRALVVVSRSTSSSGNGRWKSARKKRLVMPSNGNGVKEERLLLTNGTPCRLDSFSNPKVSSGYEDDDNHWGNKDVEEKIKWDSMFQNLKPT,soluble
16,MAHHHHHHMSWAALVKSIKPEEATNFTAKPRVTVFAVDPSQNDAERQLQNPQHETAEVKLPSFSKGLLILDANAIIKGMDNFVSTADALVTTPQVIAEIKDRASRELMERLPHKVTVLDPTPEAVAAVVACAERTGDFGAMSRTDIRLCALALECCKVGGFLGEPIEPRPPQVNPRNDDKVQVMTEEMGEDGSNDERAKSETAHAQGASSSAMPGWGDWSDEAKETDGEGGAGAAEEDDGEGEWITPENIQDVQSGTRGAGRAFEAGMACVTSDYAMQNTLMHLGVPIVGTNGIHIRELRLWMMRCTACFTLVVDTTRQFCPECGSGDTLRRVNYVVNDQGEKKLYINFRKRISTRGTIYNLPRPRGGTHGTNRNLVLREDQLAHVIRGTTSSKVKAHQVMQNDDGALATFGEAPKLKKKNLADPRAYSSYHRYNVNEKKKVRAAHRK,soluble
17,MIPLEKPGSGGSSPGATSGSGRAGRGLSGPCRPPPPPQARGLLTEIRAVVRTEPFQDGYSLCPGRELGRGKFAVVRKCIKKDSGKEFAAKFMRKRRKGQDCRMEIIHEIAVLELAQDNPWVINLHEVYETASEMILVLEYAAGGEIFDQCVADREEAFKEKDVQRLMRQILEGVHFLHTRDVVHLDLKPQNILLTSESPLGDIKIVDFGLSRILKNSEELREIMGTPEYVAPEILSYDPISMATDMWSIGVLTYVMLTGISPFLGNDKQETFLNISQMNLSYSEEEFDVLSESAVDFIRTLLVKKPEDRATAEECLKHPWLTQSSIQEPSFRMEKALEEANALQEGHSVPEINSDTDKSETEESIVTEELIVVTSYTLGQCRQSEKEKMEQKAISKRFKFEEPLLQEIPGEFIY,soluble
18,MYDTIVIGAGQAGISIGYYLKQSDQKFIILDKSHEVGESWKDRYDSLVLFTSRMYSSLPGMHLEGEKHGFPSKNEIVAYLKKYVKKFEIPIQLRTEVISVLKIKNYFLIKTNREEYQTKNLVIATGPFHTPNIPSISKDLSDNINQLHSSQYKNSKQLAYGNVLVVGGGNSGAQIAVELSKERVTYLACSNKLVYFPLMIGKRSIFWWFDKLGVLHASHTSIVGKFIQKKGDPVFGHELKHAIKQKEIILKKRVIAAKQNEIIFKDSSTLEVNNIIWATGFRNPLCWINIKGVLDQEGRIIHHRGVSPVEGLYFIGLPWQHKRGSALLQGVGNDAEYIVKQMNGELEHHHHHH,soluble
19,RENRNGDLYSLIYGTVSSEAIDPVEKKPLYHFFPGSYVYSVGTIGCNFRCKHCQNWSISQVCLEDAYTKDILPEELVERALLSDSKSIAWTYNEPTIWHEYTYESAKLAKEAGLGTIYVTNGYMTPESLKHIAPYLDAANIDIKAFNEKFYHDIASAKLAPVLEASALAKELGIHVEITTLIIPGVNDSLDELRELSKWVYKNLGPDTPLHFTRFHPQYKMQDLSPTPVKTMENACKIATEEGMKYVYMGNV,not soluble
20,MNVSIKNTDAVNAIATVAIEKADYANEVEKALRTYRQRANVPGFRKGMVPMGMIKKMYGKGVKAEEINRVVGRELYRYIAENKLNVLGEPMPNEELQKEYDFDTTDDFEFVFDLALSPVVDVVVDKSIRVPYYTIQPTEEMIDRQIESMRSSYGHSVEADEVTANDVVKGRLCELEDGQPKEGGICVEEAMLLPAYMKDEEEKNKFVGAAKNSVVVFNPSKAYNNNEYELSSLLKVDKSAIGEHTGDFSFEISSISRHEKAELNEEFFKQAFGEETDIKNEADLRVKVTEGVREQFTAESDYKFLIDLRRELEAQVGELQFPDALLKRWLKLSHTEWSDEELEKQYPAMIKDLTFHVIKEDLVKKNDIVVTPQEVRNFAIIVAKNQFAQYGMSAVPQDALERYANTMMEKEDARRNFFDRVTENKLAAALKEKLDIDAKTVSPDEFNKLMTEQPASAE,not soluble
